The DeepSol protein solubility set

assay: soluble on expression in E. coli; label from the status in PepcDB or PDB records

Sequence | soluble on expression in E. coli
MTTRILTGITPTGTPHLGNYAGAIRPAILASRRSDVDSFYFLADYHALIKCDDPARIQRSRLEIAATWLAGGLDVERATFYRQSDIPEIPELTWLLTCVSAKGLLNRAHAYKAAVDRNVEAGEDPDAGVTMGLYSYPVLMAADILMFNAHKIPVGRDQVQHVEMARDIGQRFNHLFGNGREFFVLPEAVIEENVATLPGLDGRKMSKSYDNTIPLFSPSRQLKDAIARIVTDSRAPGEPKDPDSSHLFLLYSAFASAEQVAAFRQELLEGLAWGEAKQRLFQLLDNELGEARERYQALIAKPDDIEDILLAGAAKARRIATPFIAELREAVGLRSLREPLKSAESGKKKAAKAARLVSFRDDDGSFRFRLLDAAGEQLLLSRAFADGKAAGAVSKRLLAGETADLRAEGNAFGLWLDGEAVAQSPAFADAAARDAAIERTREALAPQ | not soluble
MGSDKIHHHHHHMNSELEINLRKLGFSVYEAKVYLTLLNLCNSTMKELSENAEIPYQKVYEVVKSLEDKGLVRVIEGRPKKVKLIDPSISLKVYRDKIVSELDYAIGNVISYWSEKGKGEADRSLHIKGKTIVMRMIRELVDKSNKIKVVWDILPEWLIKILKKYKGNLTVITSSNNLSLNAEVKYVKNIKSKFIIFDDSVLVTFNDQDEIVVDSCRGCVLQAEEHFDLLTYKSE | not soluble
MRIAAAVVSIGLAVIAGFAVPVADAHPSEPGVVSYAVLGKGSVGNIVGAPMGWEAVFTRPFQAFWVELPACNNWVDIGLPEVYDDPDLASFNGATTQTSATDQTHLVKQAVGVFASNDAADRAFHRVVDRTVGCSGQTTAIHLDDGTTQVWSFAGGPSTGTDEAWTKQEAGTDRRCFVQTRLRENVLLQAKVCQSGNAGPAVNVLAGAMQNTLG | soluble
MATASQRNFLAVPDWLDAAILISDEQTSDIFDLAWDMDDFWVFGYGSLMWNPGFAFEERQQARLHGYRRSLCISSNFYRGTEEKPGLVLGLERGGSCLGVAFRVRGKDHDPVMAYLRERELVTNVYKERVVSIALANGRRGSAVTYVADPAHEQYIGGLGVAESAVIIAAATGRSGPNTDYLFNTVQHLQEMGIRDSLLESIAASVGTLSAQSAVVSLPLEHHHHHH | not soluble
MGQMFNPPHPGETLREDVLPAFNLTVTEAANQLGVSRVTLSRVLNGTSAISPEMALRIEEWLGVENGGRADLWLGMQTSYDLWKARERVHQQPLSVRSVKHKSTEMALR | not soluble
MVGVRMTKKVLIVEDNELNMKLFHDLLEAQGYETLQTREGLSALSIARENKPDLILMDIQLPEISGLEVTKWLKEDDDLAHIPVVAVTAFAMKGDEERIREGGCEAYISKPISVVHFLETIKRLLERQPA | soluble
SMSNTTIEDEDVKARKQEIIKVTEQLIEAINNGDFEAYTKICDPGLTAFEPEALGNLVEGMDFHRFYFENALSKSNKPIHTIILNPHVHLVGDDAACIAYIRLTQYMDGSGMPKTMQSEETRVWHRRDGKWQNVHFHRSGSPTV | soluble
MKPLSGLKVLDLSRVLAGPLCTMILADLGAEVVKVEPPWGDETRGWGPPFVEGESAYFLAVNRGKRSVALDLKRPEGQEAVRRLAQKADVLVENFKTGDLRRFGLDYESLKPLNPRLIYLSITGFGHTGPRAKEPGYDAALQGYTGIMSVTGEPEGPPMKVGVAWIDVMTGMMGALAVLAALWERERSGLGQHIDLSLFDVGLFALANLGESFLLTGKPPKRLGNAHAQIVPYGAFPAEDGWLVLAVGNDEQFARLCQVVGLPDLARRFPTNALRVEHREEVVEALSRALKARSRAHWLERFKEAGVPAAPVNDLKEAFQDPQARARGAVWTLPHPLLGALPTLANPLRFLSRTPAGPGLPPPLLGEHTREVLLEAGYTPEAVADLVQRGIAKEAPPASQRRPDRGA | soluble
MSLTEKTKEVRLDFFEALGMVTALMMDCDYKHWFVADISRNIIPALQAGQCKVYFDEEGRPNAFVTWALVDNDDHEALLREGCNPPPGKWASGNHLWFIDIVAPVGNILPRIKRDLHQNYFADHNKAYAIRSKADGAIRRVQVWKNPLVTRPTRSFRIGADIETHDDEGHHHHHH | soluble
MKKFFLFLVLPIFLFASPLKAVFDCAVGDLDWISLRLSLIKKTAEQLMEEGKSYRFVITIHSHCIKVVDADLKKFPESERRKIELIQSQLKTLKEMYSVDVKACQIAMNRGKIKKVPPFVETVPNSWITLIELQNKGFAFVPF | not soluble
MMLSALVYTYPYKRSSGFERLRDRIHRKRHRHQKPSVMNETDELYEMSMVTQKSDDDSDLASRIRSEKSIPSTLTTPPTVTYHRRHHHHHKKNRREKNEELCESQRKIVELNTQSHEFDPPFVVEVRCLNSQSPIGSLLSGQEQTCFKGMLRCVQQYADVHVSRRSVGSIHWHPFTIPDAPISCQCMWPVDRYGHQEF | soluble
MGKVLIIGAGGVGTVVAKKVAMNTDVFTEIMLASRTRSKCDKIASEIKNVRIQTAQVDADNVEELVALFESFKPELVINVALPYQDLTIMDACLRCGVNYLDTANYEPLDEAKYEYSWQWAYQDRFRK | not soluble
MSLSKIKSVRTRVWNWTGPTVPPTGNFCTNASDVLWDKGDAMSSFRFHQWLTCEVETDDGTIGIGNAALAPTVVKKAIDDWFAPMVIGEDPFDYAYLWEKMYRRSHAWGRKGIGMTAISAVDLAIWDLMGKLTGKPVFKLLGGRTKEKIPVYYSKLYSGPIDTMQAEAEEARKNNYPGYKMRFGWGPKDGMAGMRENLKRVEAVREVIGYDVDLMLECYQGWNLDYTKRMLPKLVKYEPRWLEEPVIADDVEGYRELNAMNIVPISGGEHEFSVIGCKDLIEKKAVSVLQYDTNRVGGITAAQKINAIAEAFQVPVIPHAGQMHNYHLTMANANCMISEYFPVFDVEVGNELFYYIFEGDPAAVDGFLDLDDNIPGLGISITDKYLKHFEIQEEGHHHHHH | soluble
MGSDKIHHHHHHMSSTHTGIEWTDKTWNPTTGCDKVSPGCRYCYAEALTERFPQSFPTGFKLNLHPERLEQPKRWRTPSRIFVNSMSDLFHEDVPFSFLQEIFSIMRETPWHIYQILTKREENLVDLAPKLEWTENIWMGVSVESQRYTYRIDALRKVPAAVRFLSCEPLLESLNLDLQNIDWVIVGGESGYNHRPVKPEWIREILQQTREAEVAFFFKQWGGKHSKAGGRMLDDHTWEEMPKAWRKHIIKWQKKFHGQPKLHELEQKYLMSTK | not soluble
MMSIAQVRSAGSAGNFYTDKDNYYVLGSMGERWAGRGAEQLGLQGSVDKDVFTRLLEGRLPDGADLSRMQDGSNRHRPGYDLTFSAPKSVSMMAMLGGDKRLIDAHNQAVDFAVRQVEALASTRVMTDGQSETVLTGNLVMALFNHDTSRDQEPQLHTHAVVANVTQHNGEWKTLSSDKVGKTGFIENVYANQIAFGRLYREKLKEQVEALGYETEVVGKHGMWEMPGVPVEAFSGRSQTIREAVGEDASLKSRDVAALDTRKSKQHVDPEIKMAEWMQTLKETGFDIRAYRDAADQRADS | soluble
MGTVMIRNVYKGVHNMKLENGWETSFLEVVQNSEFKKEALLSQLLCQDSEEVEELVDDYGYEELVEREHDDELAEILGEELFSEMERQVFLSSNPEEKLISFVNGLGFHVLDWIVLLETEFGIDSANFTSDAVKVLEKRFRQFPYIEDKTIFDMTFGESMDVLESVTGLQLKEKMNV | not soluble
THVYNYDIPQDPESYVHRIGRTGRAGATGTSVTFVTNWEMDYLRDVEHLTKKRLLPMKPPTEEEAFAGRAAMAEQSIEELVQKTDVAKFEEQVDHLLEQHDAKTLVAALLNEVTKSDASEIKVKITPERPLPR | not soluble
MAHHHHHHMAADEDAREHRTMCRLLQAATGKLSDMTVTTNIETHIATLRAANMSTSPKEWHALFNSKNNSNAYEKLSAEGKKEAGALGGAAAWGAWRTDKEEAEKKKIGTQEDKDFPAIADARQQFAAHNRLLELTAKAVEISKKWKAAKDFITNDETNNIQKLLREALYEDGAAADALTQSTSFGTGSNWASHCNGDDKRKSISGDFLCMRGGSGGAAKECSGAFTGAEIDNQGTITTKWADLKASCALNTENVITPHEIAAALGSLARQPHTTRSSK | not soluble
MRYITAGESHGPQLTTIIEGVPAGLPLVADDINEELARRQKGYGRGRRMQIETDQVQIVSGVRHGETLGSPIALVVENRDFAHWTKIMGAEPLTEQEEKEMKRKVTKPRPGHADLNGAIKYGHRDMRNVLERSSARETTVRVAAGAVAKKVLAELGITVAGHVIEIGGVEAKETTYRSIEELKSITEASPVRCLDEEAGNQMIKAIDDAKSNGDSIGGIVEVIVEGMPIGVGSYVHYDRKLDAKLAAAIMSINAFKGVEIGIGFEAAHRPGSEVHDEILWNEEHGYTRRTNNAGGLEGGMTTGMPIVVRGVMKPIPTLYKPLQSVDIDTKEPFTASIERSDSCAVPAASVVAEAVVAWELATALIEQFGLDRMDLIRENIEKHNEYARGF | not soluble
GSLYKMSSINADFAFNLYRRFTVETPDKNIFFSPVSISAALVMLSFGACCSTQTEIVETLGFNLTDTPMVEIQHGFQHLICSLNFPKKELELQIGNALFIGKHLKPLAKFLNDVKTLYETEVFSTDFSNISAAKQEINSHVEMQTKGKVVGLIQDLKPNTIMVLVNYIHFKAQWANPFDPSKTEDSSSFLIDKTTTVQVPMMHQMEQYYHLVDMELNCTVLQMDYSKNALALFVLPKEGQMESVEAAMSSKTLKKWNRLLQKGWVDLFVPKFSISATYDLGATLLKMGIQHAYSENADFSGLTEDNGLKLSNAAHKAVLHIGEKGTEAAAVPEVELSDQPENTFLHPIIQIDRSFMLLILERSTRSILFLGKVVNPTEA | soluble
MQRERTAESSLRVISKEKNSITVEMINYDNTLLRTLVEEILKDDQVDEARYYIKHPVIDNPQIYVRVKSGKPQSAIKRAVRKLSKLYEDLGTQFQKEFQRYESDHMIKAVE | soluble
MKISAVVVTFNRKKLLLECLNALRNQTYPLDAIFIIDGPSTDGTPEALLECGYIKELPPKKGNWSWETKNVIYSPINNKPIKVYYVRLYKDVGGSGGFYEGVKRAYEEGYNWIWLMDDDAEPREDALEKLIRYMNLPGVIALAPTVIRPTGEISKPHRGILCFKKIFPMIQIPLDESKYKSNQPVQIDFVSFVGPLIKRDAIKIVGFPKKEFFIHHDDVEYSIRLRTVGKIYLIPDSVIIHKENIKKTSLIKKRFLGKTIYRIPYNKLWKTYYGTRNLTYLGRIYSKSKFKFYFKLLKRWAVSVGAIILFDDHKIKRIQFITSAYLDGLRGKFDNEKPKRILYGGKKELEHHHHHH | soluble
MGSDKIHHHHHHMYVAVKGGEQAILNTHKLISETRRGDPEIAELTLPQISEQLGLAVDRVMAEGSVYDRQLAALALKQAQGDAMEAIFLLRAYRTTLPRIAVSEPIDTSRMAIRRRISATFKDLPGGQVLGPTYDYTHRLLDFALTAEGLERVRAVPAAEPLDQSVPRVVDLLDDEGVIQEENDDDQEEVFDLTRQPKSFPAGRDQRLQNLARADEGFLLGLAYSTTRGYGFNHPFVGELRLGEVTVEIVPEELGFPIVVAEVTVTECQMINSFRGSAEQPPQFTRGYGLTFGHNEGKAMSMSLVDRAMRARELGEDVRYPAQDEEFVLSHTDNVEANGLVTHYKLPHYVDFQAELQLVRQLRAEYEAARAAAQTREAAE | not soluble
MGSDKIHHHHHHMSHPPLIVHVIFHLGVGGLENGLVNLINHIPADRYRHAIICLKGFSEFHKRLNRDDVEIIALNKREGKDFSVYGKLYRVFRQLKPDIVHTRNLTAMEAQVVAAVAGVKARVHGEHGRDIFDLDGKNWKYNLLRKAIRPFIHHFITVSKDLENWLIDTVKVSPVKVHQIYNGVEHLRFHPGGTVPVEIFPPDFFAGRPFVVGSVGRMAAVKDFPTLVQAFLMLRNELSEIDRPLRLIIAGEGVARAECEAMLRSAGVEQFAWLPGERDDIPQLMQAMDVFVLPSLGEGISNTVLEAMASGLPVIATRVGGNTELVLEGETGRLVPSGDPVALARAISQYHQDNTAVYKHGQHARAIIEQQFSMRSMTNGYLAVYDRVLGYKSKTETIN | not soluble
